Data: patent US20220411514A1, “ANTI-GAL3 ANTIBODIES AND METHODS OF USE FOR INSULIN RESISTANCE” (TrueBinding, Inc., priority 2021, published 2022)

Columns and labels:
human Gal3 = target: T1, human Gal3 (Homo sapiens, UniProt P17931); assay: Epitope binning, sandwich format, SPR Carterra LSA (Example 8); type: binding
T1 construct: 6xHis (linker-spaced) (C); purchased AcroBio (Acro Biosystems) GA3-H5129
Procedure: The epitope binning assay was done in a sandwich format on the high-throughput SPR-based Carterra LSA unit (CarterraBio, Salt Lake City, Utah). First, the purified antibodies were diluted to 10 μg/ml concentration in 10 mM NaOAc (pH 5.0) and then were covalently coupled via amine group to HC200M chip activated by EDC and S-NHS to immobilize antibodies to different positions of a 384-spot array. One hundred thirty-eight binning cycles were run on the array of immobilized antibodies. In each cycle, first, human Gal3 (AcroBio GA3-H5129) was injected over the entire array to bind to different antibodies (primary antibody), followed by one antibody (secondary antibody) selected among the panel of 150 anti-GAL3 antibodies tested. At the end of each cycle, the array was regenerated by 10 mM Glycine (pH 2.0) to remove bound antigen and secondary antibody from the array. The data analysis was done using the Epitope software by CarterraBio.

Human Gal3 peptides = assay: Gal3 peptide binding ELISA (Example 8); settings: antibody 5 μg/mL
Procedure: Gal3 peptide binding activity of additional exemplary anti-Gal3 antibodies was assessed with the same peptides as described in FIG. 18 (SEQ ID NOs: 3-26). Human Gal3 peptides (LifeTein, custom order) and human Gal3 proteins (R&D Systems, 8259-GA; TrueBinding, QCB200349) were diluted in PBS (Corning, 21-030-CM) to concentrations of at least 100 μg/mL (peptides) or 1 μg/mL (proteins), and added to the wells of several 96-well ELISA plates (Thermo Fisher, 44-2404-21). After incubating the plates at 4° C. overnight, the plates were washed three times with PBST (PBS with 0.05% Tween 20 [VWR, 0777]). The plates were then blocked for an hour with 2% BSA (EMD Millipore, 126609) in PBST at room temperature with gentle rocking. Thereafter, the 2% BSA in PBST was discarded and Gal3-binding antibodies (reformatted hIgG4 [S228P]) were diluted in 2% BSA in PBST to concentrations of 5 μg/mL and added to the wells. The plates were incubated for an hour at room temperature with gentle rocking and then washed three times with PBST. Afterwards, Peroxidase AffiniPure F(ab′)2 Fragment Goat Anti-Human IgG (H+L) polyclonal antibody (Jackson ImmunoResearch, 109-036-003), was diluted in 2% BSA in PBST (1:4000) and added to the wells. The plates were incubated for 1 hour at room temperature with gentle rocking and then washed three times with PBST. TMB substrate (Thermo Scientific, 34029) was then added to each well. The reaction was stopped with 1M HCl (JT Baker, 5620-02) and read using a plate reader (Molecular Devices) at absorbance of 450 nm.

[1] = system: GLUT4 translocation in L6 GLUT4myc myoblasts; assay: Insulin-stimulated GLUT4 translocation with Gal3 and anti-Gal3 antibody; type: cell-based, rat; settings: 30 μg/mL Gal3 pre-incubated with 60 μg/mL antibody, 100 nM insulin
Procedure: Rat L6 GLUT4myc myoblasts (Kerafast #ESK202-FP) express a Myc-tagged GLUT4 that can be detected with an anti-Myc antibody. These cells were grown in a 48-well plate in MEM u growth media (Gibco, #12-571-063)+10% fetal bovine serum (FBS; Corning #35-016-CV) until 90-95% confluence was reached. Cells were then washed in PBS and serum starved for 2 hours in MEM u growth media without FBS. Thirty (30) μg/mL recombinant human Gal3 (TrueBinding QCB200347) was pre-incubated with 60 μg/mL anti-Gal3 antibodies for 30 minutes before being added to the serum-starved cells for 1 hour at 37° C. At the end of incubation, half of the cells were treated with 100 nM insulin (Sigma-Aldrich #I5523-50MG) for 20 minutes while the other half acted as basal controls. After 20 minutes, cells were washed quickly with ice cold PBS twice, then incubated with 4% paraformaldehyde (Boster Bio #AR1068) for 10 minutes on ice followed by 10 minutes at room temperature. The cells were washed three times with PBS, then blocked with 0.5 mL 5% goat serum (Vector Laboratories #101098-382) in PBS for 15 minutes. After the blocking agent was aspirated from the cells, 1 μg/ml anti-Myc polyclonal antibody (Sigma-Aldrich #C-3956) in 5% goat serum was added for 1 hour. […] Primary antibody was aspirated away, and then cells washed 5 times with PBS. Next, cells (including background controls) were incubated with 1:1000 goat anti rabbit antibody secondary antibody (Abcam #Ab97051) in 5% Goat serum for 30 minutes at room temperature. After washing, cells were incubated with 400 μL of TMB (Thermo Scientific #PI34029) for 5 minutes, then 200 μL of 1N HCL (Avantor Performance #JT5620-2) was added to stop the reaction. 100 μL of the sample was transferred to a 96 well plate with duplicates transferred for each condition. Samples were read at 450 nm on a SpectraMax plate reader. […] The fold changes were plotted on GraphPad Prism and presented as mean (SEM) of the technical replicates. Statistical significance was determined using unpaired T-tests comparing samples treated with Gal3 and insulin with all other conditions.

T1 sequence (P17931 whole entry): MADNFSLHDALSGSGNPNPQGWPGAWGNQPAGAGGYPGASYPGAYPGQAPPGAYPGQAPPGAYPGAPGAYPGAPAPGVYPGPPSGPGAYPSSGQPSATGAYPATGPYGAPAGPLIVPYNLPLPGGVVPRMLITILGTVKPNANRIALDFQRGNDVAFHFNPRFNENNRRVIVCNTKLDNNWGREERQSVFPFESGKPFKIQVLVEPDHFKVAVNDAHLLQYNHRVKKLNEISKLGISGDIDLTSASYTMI

binding to hGAL3 when immobilized on HC200M chip (human Gal3)	binding to any of the tested Gal3 peptides (Human Gal3 peptides)	epitope bin (mutual competitive binding for Gal3) (human Gal3)	Molecule	effect on Gal3 block of insulin-stimulated GLUT4 translocation [1]
not bind	not found to bind	–	847.4D3: anti-Gal3 antibody (antibody, V domains shown) VH: EVQLVESGGGLVKPGGSLKLSCAASGFTFSSYAMSWVRQTPEKRLEWVASISSGDSPYYPDSVKGRFTISRDNARNILYLQMSSLRSEDTAMYYCTRFTTVVEMDYWGQGTSVTVSS VL: DVVMTQTPKFLPITAEDRVTITCKASQSVSNEVAWYQQKPGQSPKLLIYYASNRYTGVPDRFTGSGSGTDFTFTIRSVQLEDLAVYFCQQHYSSPWTFGGGTKLEIK	–
not bind	not found to bind	–	847.15F9: anti-Gal3 antibody (antibody, V domains shown) VH: QVQMKQSGPGLVQPSQSLSITCTVSGFSLINYGVHWVRQSPGKGLEWLGVIWSGGSTDYNAAFISRLSISKDNSKSQVFFKMNSLQADDTAIYYCARIYYYGRGYAMDYWGQGTSVTVSS VL: QIVLSQSPAILSASPGEKVTMTCRASSSVTYMYWYQQKPGSSPQPWIYATSNLASGVPARFSGSGSGTSYSLTISRVEAEDAATYYCQQWSSNPLTFGAGTKLELK	–
not bind	not found to bind	–	847.2B8: anti-Gal3 antibody (antibody, V domains shown) VH: QVQLKQSGPGLVQPSQSLSITCTVSGFSLINYGVHWVRQSPGKGLEWLGVIWSGGSTDYNAAFISRLSISKDNSKSQVFFKMNSLQADDTAIYYCARIYYYGRGYAMDYWGQGTSVTVSS VL: QILLSQSPAILSASPGEKVTMTCRASSSVTYMYWYQQKPGSSPQPWIYATSNLASGVPARFSGSGSGTSYSLTISRVEAEDAATYYCQQWSSNPLTFGAGTKLELK	–
–	not found to bind	21	849.5H1: anti-Gal3 antibody (antibody, V domains shown) VH: QVQLKESGPVLVAPSQSLSITCTVSGFSLTSYGIHWVRQPPGKGLEWLGVIWAGGSTNYNSALMSRLSISKDNSKSQVFLKMNSLQIDDTAMYYCAKPPHDYDQAWFAYWGQGTLITVSA VL: DIQMNQSPSSLSASLGDTITITCHASQNINVWLSWYQQKPGNIPKLLIYQASNLHTGVPSRFSGRGSGTGFTLTISSLQPEDIATYYCQQGQSSPFTFGSGTKLEIK	–
–	not found to bind	CRD	847.16D10: anti-Gal3 antibody (antibody, V domains shown) VH: QVQLQQSGAELVRPGASVKLSCKASGYTFTGYWLNWVKQRPGQGLEWIGMIDPSDSETHYNQVFKDKATMTVDRSSSTAYMQLSGLTSEDSAVYYCANSNYASGSWGQGTTLTVSS VL: QAVVTQESALTTSPGETVTLTCRSSTGAVTTSNYANWDQEKPDHLFTGLIGGTNNRAPGVPARFSGSLIGDKAALTITGAQTEDEAIYFCALWYSNHLVFGGGTKVTVL	–
–	not found to bind	10	849.2D7: anti-Gal3 antibody (antibody, V domains shown) VH: QVQLQQSGPQLVRPGASVKISCKASGYSFTNYWMHWVKQRPGQGLEWIGMIDPSDSETRLNQKFKDKATLTVDKSSSTAYMQLSSPTSEDSAVYYCATGRPDYWGQGTTLTVSS VL: DIVMTQSHKFMSTSVGDRVSITCKASQDVSTAVAWYQQKPGQSPKLLIYWASTRHTGVPDRFTGSGSGTDYTLTISSVQAEDLALYYCQQHYSTPYTFGGGTKLEIK	–
–	not found to bind	–	847.20H7: anti-Gal3 antibody (antibody, V domains shown) VH: QVQLQQSGAELVRPGASVNLSCKASGYTFTNYWMNWVKQRPGQGLEWVGMIDPSDSETHYNQMFKDKATLTIDKSSSIAYMQLSSLTSEDSAVYYCARWGAMDYWGQGTSVTVSS VL: DIVMTQSHKIMSTSVGDRVSITCKASQDVSTTVAWFQQKPGQSPKLLLYWASTRHTGVPDRFTGSGSGTDYTLTISSVQAEDLALYYCQQHYSPPFTFGSGTKLEIK	–
not bind	not found to bind	–	847.21B11: anti-Gal3 antibody (antibody, V domains shown) VH: QVQLKQSGPGLVAPSQSLSITCTVSGFSLTSYGVHWVRQPPGKGLEWLGIIWAGGSTNYNPALMSRLSISKDKSKSQVFLKMNSLKTDDTAMYYCARDRASLLRPGAMDYWGQGTSVTVSS VL: DIVMTQSQKFMSTSVGDRVSVTCKASQNVGINVAWYQQKPGQSPKALIYSASYRYSGVPDRFTGSGSGTDFTLTISNVQSEDLAEYFCQQYNSYPYTFGGGTKLEMK	–
not bind	not found to bind	–	846T.4C9: anti-Gal3 antibody (antibody, V domains shown) VH: EVQLQQSGPELVKPGASVKMSCKASGYSFTNYIMHWVKQKPGQGLEWIGYINPYNDGTKYNEKFKGKATLTSDKSSSTAYMELSSLTSEDSAVYYCARLLFYYAMDYWGQGTSVTVSS VL: DILMTQTPSSMSVSLGDTVSITCHASQGISSNIGWLQQKPRKSFKGLIYYGTNLEDGVPSRFSGSGSGADYSLTISSLESEDFADYYCVQYDQFPWTFGGGTKLEIK	–
not bind	not found to bind	–	849.4F12: anti-Gal3 antibody (antibody, V domains shown) VH: QVQLKESGPGILQPSQTLSLTCSFSGFSLSTFGMGVGWIRQPSGKGLEWLAHIWWDDDKHYNPALKSRLTISKDTSKNQVFLRIANVDTADNATYYCARIDYGDYVGFAYWGQGTLVTVSA VL: DILLTQSPSSMSVSLGDTVSITCHASQGINSNIGWLQQKPGKSFKGLIYHGTNLEDGVPSRFSGSGSGADYSLTISSLESEDFADYYCVQYDQFPWTFGGGTKLEIK	–
–	–	–	2D10-hVH4-HVL1: anti-Gal3 antibody, VH SEQ ID NO: 806, VL SEQ ID NO: 821 (antibody, V domains shown, VH-80 Peptide Sequence; VL-78 Peptide Sequence) VH: QVQLVQSGAEVKKPGASVKVSCKASGYTFTDYYINWVRQAPGQRLEWMGWIYPGSQDTKYNEKFQGRVTLTVDTSASTAYMELSSLRSEDTAVYFCANYFGSSGWFFDVWGQGTMVTVSS VL: DIVMTQSPLSLPVTPGEPASISCRSSKSLLHSDGITYLYWYLQKPGQSPQLLIYRMSNRASGVPDRFSGSGSGTDFTLKISRVEAEDVGVYYCAQMIEFPLTFGQGTKLEIK	reduce the ability of Gal3 to block GLUT4 translocation
